The values that follow come from patent US7452992B2, “Heterocyclic compounds as CCR5 antagonists” (SmithKline Beecham Corporation, priority 2002, dated 2008).

This test addresses T1, human CCR5 chemokine receptor (Homo sapiens, UniProt P51681).
T1 construct: host or cells: Chinese Hamster Ovary (CHO) cells; membranes prepared from the cell pellet
Kind of test: CC-Chemokine Receptor-5 Binding by Scintillation Proximity Assay (CCR5 SPA), displacement of 125I-MIP1α. As to conditions: standard compound, 14-point concentration-response curve in triplicate, starting concentration 1 μM. As to the method: CC-Chemokine Receptor-5 Binding by Scintillation Proximity Assay (CCR5 SPA)
Scintillation Proximity Assay for the Human CC-Chemokine Receptor, CCR-5
This protocol describes a high-throughput screen using SPA binding to identify compounds that inhibit binding of ^125I-MIP1α to the human CCR5 chemokine receptor.
Human CCR5 receptors were expressed in Chinese Hamster Ovary (CHO) cells, registration # 12025. Cells were grown in suspension and a 50 to 80 ml CCR5 cell pellet was prepared. […]
The saturation curve binding experiment is performed by adding varying amounts of [^125I]MIP1α (0-8.5 nM to membranes and beads in concentrations chosen from the optimal protein/bead ratio. The data is analyzed using a non-linear curve-fitting program. The Kd and Bmax are derived from the curve. […]
(In general: In a scintillation proximity assay essentially only radioactivity close to the scintillant gives light.)

T1 sequence (P51681 whole entry): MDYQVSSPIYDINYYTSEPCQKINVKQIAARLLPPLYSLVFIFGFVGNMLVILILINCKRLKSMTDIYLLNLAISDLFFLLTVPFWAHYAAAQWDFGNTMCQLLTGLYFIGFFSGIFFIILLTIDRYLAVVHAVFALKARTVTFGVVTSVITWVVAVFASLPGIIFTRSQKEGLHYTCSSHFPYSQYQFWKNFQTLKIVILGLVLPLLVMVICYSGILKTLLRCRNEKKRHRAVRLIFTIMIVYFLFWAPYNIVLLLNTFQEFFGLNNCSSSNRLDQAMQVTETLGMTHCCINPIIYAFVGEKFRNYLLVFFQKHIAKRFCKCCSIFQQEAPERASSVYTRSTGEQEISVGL

On to “MIP1α: natural chemokine ligand of CCR5, used as standard compound in the SPA binding assay”, for which the “average historical pKi” value is listed as 7.6.
